One molecule from patent publication US20150246953A1 (Scripps Research, published 2015) can be followed below.

For this experiment, the target named is T1, MG281F2 construct, residues 278 to 450 with N-terminal 6-His tag and thrombin cleavage site (Mycoplasma genitalium, UniProt P47523 279-452).
T1 sequence: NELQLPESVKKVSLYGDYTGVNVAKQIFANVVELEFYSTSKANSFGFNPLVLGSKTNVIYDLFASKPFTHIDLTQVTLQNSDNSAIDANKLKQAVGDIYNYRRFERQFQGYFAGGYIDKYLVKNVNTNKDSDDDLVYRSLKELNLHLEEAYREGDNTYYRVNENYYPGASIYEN
Description: Western blot, plasma 13PL as primary antibody. Background: A western blot detects proteins with antibodies after separation by electrophoresis.

B1: IgG from multiple myeloma patient plasma 13PL (antibody, V domains shown)
VH: AVSLVESGGGTVEPGSTLRLSCAASGFTFGSYAFHWVRQAPGDGLEWVAFISYNGSSKYYANFVKGRFTISRDNSSNTLSLQMNSLKASDTAVYYCARAPDCAQADCHKGAFGYWGQGTLVTVSS
VL: DIEMTQSPSSLSASTGDKVTITCQASQDIAQFLDWYQQRPGDTPKLLIYDASNLAIGVPSRFTGSGSGTDFTFTISSLQPEDIAVYYCQHYDDFPISFGPGTKLETKR
notes: also called multiple myeloma antibody 13PL
Regarding B1, the binding result was “no binding (tested: 1 µg/µg and 2 µg/µg)”.
